From publication PMC9482650, “Quantitative fragmentomics allow affinity mapping of interactomes” (Nature Communications, 2022)
One block for each binder: values may come before it.

Tests used:
Test in all cases: holdup assay
Design in all cases: key: below the threshold = too weak to quantify, mostly under pKd 3.1 to 4
[1] = biological target: HTRA1, Q92743
[2] = biological target: MAGI2_6, Q86UL8
[3] = biological target: T1, LIN7A, O14910
T1 sequence (O14910 103-200, limits assumed, looked up): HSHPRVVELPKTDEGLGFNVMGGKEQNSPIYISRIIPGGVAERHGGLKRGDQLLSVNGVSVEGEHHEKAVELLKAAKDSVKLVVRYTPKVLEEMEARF

[4] = biological target: GRIP2_7, Q9C0E4
GRIP2_7, Q9C0E4, sequence (Q9C0E4 934-1023): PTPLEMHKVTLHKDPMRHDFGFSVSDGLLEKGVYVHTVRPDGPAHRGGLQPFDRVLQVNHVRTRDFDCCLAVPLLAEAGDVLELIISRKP

[5] = biological target: IL16_3, Q14005
IL16_3, Q14005, sequence (Q14005 1107-1207): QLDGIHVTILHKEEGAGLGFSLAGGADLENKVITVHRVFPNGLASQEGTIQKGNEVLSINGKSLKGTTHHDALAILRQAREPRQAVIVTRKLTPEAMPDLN

[6] = biological target: GORASP2, Q9H8Y8
[7] = biological target: T2, FRMPD1, Q5SYB0
T2 sequence (Q5SYB0 52-145, limits assumed, looked up): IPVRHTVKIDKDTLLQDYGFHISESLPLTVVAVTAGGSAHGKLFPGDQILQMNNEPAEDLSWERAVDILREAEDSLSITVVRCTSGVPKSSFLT

[8] = biological target: T3, PARD3B_1, Q8TEW8
T3 sequence (Q8TEW8 196-299, limits assumed, looked up): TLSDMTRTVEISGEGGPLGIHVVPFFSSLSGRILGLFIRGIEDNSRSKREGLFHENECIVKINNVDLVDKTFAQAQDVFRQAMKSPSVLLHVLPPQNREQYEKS

[9] = biological target: MAGI1_1, Q96QZ7
MAGI1_1, Q96QZ7, sequence (Q96QZ7 1-106): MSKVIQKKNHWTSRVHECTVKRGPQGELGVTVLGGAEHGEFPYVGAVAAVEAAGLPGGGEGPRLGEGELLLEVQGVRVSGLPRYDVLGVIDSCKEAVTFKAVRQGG

[10] = biological target: T4, DFNB31_3, Q9P202
T4 sequence (Q9P202 811-907, limits assumed, looked up): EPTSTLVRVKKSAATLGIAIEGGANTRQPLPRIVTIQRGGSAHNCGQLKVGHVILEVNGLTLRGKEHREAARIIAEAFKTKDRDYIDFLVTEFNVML

[11] = biological target: T5, APBA1_1, Q02410
T5 sequence (Q02410 651-752, limits assumed, looked up): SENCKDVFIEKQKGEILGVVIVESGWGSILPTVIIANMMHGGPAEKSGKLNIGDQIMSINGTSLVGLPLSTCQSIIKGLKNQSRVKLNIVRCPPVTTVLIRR

[12] = biological target: T6, GRIP1_2, Q9Y3R0
T6 sequence (Q9Y3R0 145-248, limits assumed, looked up): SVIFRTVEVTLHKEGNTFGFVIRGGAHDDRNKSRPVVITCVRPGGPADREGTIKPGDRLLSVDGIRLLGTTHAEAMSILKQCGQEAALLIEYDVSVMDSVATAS

[13] = biological target: SCRIB_1, Q14160
SCRIB_1, Q14160, sequence (Q14160 718-814): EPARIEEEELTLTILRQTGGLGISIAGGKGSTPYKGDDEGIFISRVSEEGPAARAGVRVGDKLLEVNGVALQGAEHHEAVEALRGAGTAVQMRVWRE

[14] = biological target: MAGI2_4, Q86UL8
MAGI2_4, Q86UL8, sequence (Q86UL8 772-865): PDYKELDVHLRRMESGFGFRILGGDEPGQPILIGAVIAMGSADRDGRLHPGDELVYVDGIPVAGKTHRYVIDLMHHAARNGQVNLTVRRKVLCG

[15] = biological target: T7, DLG3_1, Q92796
T7 sequence (Q92796 125-227, limits assumed, looked up): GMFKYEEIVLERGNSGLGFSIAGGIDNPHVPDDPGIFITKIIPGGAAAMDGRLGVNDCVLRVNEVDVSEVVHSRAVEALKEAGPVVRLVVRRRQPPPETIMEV

[16] = biological target: T8, HTRA4, P83105
T8 sequence (P83105 378-476, limits assumed, looked up): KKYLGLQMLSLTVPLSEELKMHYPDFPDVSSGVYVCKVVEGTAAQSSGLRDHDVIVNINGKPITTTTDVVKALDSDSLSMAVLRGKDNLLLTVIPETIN

[17] = biological target: DLG2_2, Q15700
DLG2_2, Q15700, sequence (Q15700 189-283): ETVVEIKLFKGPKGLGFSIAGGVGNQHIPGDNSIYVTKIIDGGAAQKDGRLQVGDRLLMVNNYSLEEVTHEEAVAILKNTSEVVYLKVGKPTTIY

[18] = biological target: T9, MPP2, Q14168
T9 sequence (Q14168 180-250, limits assumed, looked up): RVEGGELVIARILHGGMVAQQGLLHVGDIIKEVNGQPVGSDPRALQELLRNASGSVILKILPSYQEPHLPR

[19] = biological target: T10, APBA2_2, Q99767
T10 sequence (Q99767 654-744, limits assumed, looked up): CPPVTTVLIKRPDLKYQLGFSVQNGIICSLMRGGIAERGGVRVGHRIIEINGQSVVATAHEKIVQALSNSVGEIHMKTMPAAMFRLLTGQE

[20] = biological target: GRASP, Q7Z6J2
GRASP, Q7Z6J2, sequence (Q7Z6J2 96-193): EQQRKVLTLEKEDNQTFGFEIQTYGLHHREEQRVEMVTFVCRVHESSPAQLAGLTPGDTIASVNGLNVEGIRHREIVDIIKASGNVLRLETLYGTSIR

[21] = biological target: LNX1_2, Q8TBB1
LNX1_2, Q8TBB1, sequence (Q8TBB1 371-470): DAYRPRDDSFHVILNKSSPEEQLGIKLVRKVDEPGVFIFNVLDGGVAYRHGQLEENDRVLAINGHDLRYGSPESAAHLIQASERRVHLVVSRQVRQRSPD

[22] = biological target: T11, DFNB31_2, Q9P202
T11 sequence (Q9P202 274-371, limits assumed, looked up): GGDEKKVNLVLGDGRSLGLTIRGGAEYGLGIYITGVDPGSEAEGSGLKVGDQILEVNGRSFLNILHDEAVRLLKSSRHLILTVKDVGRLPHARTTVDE

[23] = biological target: T12, SNTA1, Q13424
T12 sequence (Q13424 82-180, limits assumed, looked up): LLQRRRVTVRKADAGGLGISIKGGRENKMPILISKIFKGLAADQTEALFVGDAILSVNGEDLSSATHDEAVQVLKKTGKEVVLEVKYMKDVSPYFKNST

[24] = biological target: FRMPD4, Q14CM0
FRMPD4, Q14CM0, sequence (Q14CM0 67-160): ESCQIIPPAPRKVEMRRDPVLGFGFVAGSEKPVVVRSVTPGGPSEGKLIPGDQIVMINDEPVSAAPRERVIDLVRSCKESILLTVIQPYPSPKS

[25] = biological target: MAST2, Q6P0Q8
MAST2, Q6P0Q8, sequence (Q6P0Q8 1099-1202): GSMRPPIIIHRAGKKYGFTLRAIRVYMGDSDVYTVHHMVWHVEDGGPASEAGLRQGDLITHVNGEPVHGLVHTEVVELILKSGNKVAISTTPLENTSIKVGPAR

[26] = plain residues with an end cap or a label only (N-terminal biotin on a linker: ahx)
[27] = plain residues with an end cap or a label only (N-terminal biotin on a linker: ttds)
[28] = plain residues with an end cap or a label only (N-terminal biotin on a linker: ado-ado)

MAGI2_6, Q86UL8, sequence (Q86UL8 1141-1229): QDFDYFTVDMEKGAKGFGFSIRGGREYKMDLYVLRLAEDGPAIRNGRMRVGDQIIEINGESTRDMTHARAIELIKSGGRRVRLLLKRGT
HTRA1, Q92743, sequence (Q92743 360-477): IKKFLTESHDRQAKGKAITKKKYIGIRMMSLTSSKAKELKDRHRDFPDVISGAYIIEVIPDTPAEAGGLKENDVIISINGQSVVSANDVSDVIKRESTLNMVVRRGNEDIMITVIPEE

pKd [1, 26]: below the threshold | pKd [2, 26]: 4.65 | pKd [3, 26]: below the threshold | pKd [4, 26]: 3.53 | pKd [5, 26]: 3.57 | pKd [6, 26]: below the threshold | pKd [7, 26]: below the threshold | pKd [8, 26]: below the threshold | pKd [9, 26]: below the threshold | pKd [10, 26]: below the threshold | pKd [11, 26]: below the threshold | pKd [12, 26]: below the threshold | pKd [13, 26]: 3.71 | pKd [14, 26]: 3.61 | pKd [15, 26]: 4.15 | pKd [16, 26]: below the threshold | pKd [17, 26]: below the threshold | pKd [18, 26]: below the threshold | pKd [19, 26]: below the threshold | pKd [20, 26]: below the threshold | pKd [21, 26]: below the threshold | pKd [22, 26]: below the threshold | pKd [23, 26]: 4.39 | pKd [24, 26]: below the threshold | pKd [25, 26]: 4.49
Binder: EKLSSIESDV [GRIN2B, Q13224]

pKd [1, 27]: below the threshold | pKd [2, 27]: 4.05 | pKd [3, 27]: below the threshold | pKd [4, 27]: below the threshold | pKd [5, 27]: below the threshold | pKd [6, 27]: below the threshold | pKd [7, 27]: below the threshold | pKd [8, 27]: below the threshold | pKd [9, 27]: below the threshold | pKd [10, 27]: below the threshold | pKd [11, 27]: below the threshold | pKd [12, 27]: below the threshold | pKd [13, 27]: 5.56 | pKd [14, 27]: below the threshold | pKd [15, 27]: below the threshold | pKd [16, 27]: below the threshold | pKd [17, 27]: 3.9 | pKd [18, 27]: below the threshold | pKd [19, 27]: below the threshold | pKd [20, 27]: below the threshold | pKd [21, 27]: below the threshold | pKd [22, 27]: below the threshold | pKd [23, 27]: 4.8 | pKd [24, 27]: below the threshold | pKd [25, 27]: 5.97
Binder: LDSQIQETSI [MAP4, P27816]

pKd [1, 28]: 4.6 | pKd [2, 28]: 3.67 | pKd [3, 28]: 3.55 | pKd [4, 28]: below the threshold | pKd [5, 28]: below the threshold | pKd [6, 28]: below the threshold | pKd [7, 28]: below the threshold | pKd [8, 28]: 4.57 | pKd [9, 28]: below the threshold | pKd [10, 28]: below the threshold | pKd [11, 28]: below the threshold | pKd [12, 28]: below the threshold | pKd [13, 28]: below the threshold | pKd [14, 28]: below the threshold | pKd [15, 28]: below the threshold | pKd [16, 28]: below the threshold | pKd [17, 28]: below the threshold | pKd [18, 28]: below the threshold | pKd [19, 28]: below the threshold | pKd [20, 28]: 3.48 | pKd [21, 28]: below the threshold | pKd [22, 28]: below the threshold | pKd [23, 28]: 5.26 | pKd [24, 28]: 3.92 | pKd [25, 28]: 5.32
Binder: GFGEERESIL [KIDINS220, Q9ULH0]
